Test results taken from the Human Domainome abundance scans (Beltran et al. 2025).

B1: POU domain, class 3, transcription factor 2, residues 262 to 338; numbered along this chain, P20265 (parent)
chain: EDTPTSDDLEQFAKQFKQRRIKLGFTQADVGLALGTLYGNVFSQTTICRFEALQLSFKNMCKLKPLLNKWLEEADSS

Variants of: B1
Test: abundance fitness (aPCA) (normalised: wild type 0, dead -1); higher = more abundant; growth selection in yeast, the domain comes from the species named
Settings: Homo sapiens

Abundance fitness of substitutions, site by site:
A28: N -0.019, T -0.198, R -0.058, M -0.208, V -0.204, C -0.165, E 0.035, W -0.301, P -0.811, Y -0.117, K 0.067, L -0.196, F -0.452, Q -0.094, D -0.182, S -0.086, H -0.116
L32: F -0.25, N 0.091, K 0.493
T26: D -0.601, W -0.898, N -0.392, V -0.797, Q -0.586, I -0.635, P -0.553, E -0.536, S -0.014, Y -0.89, A -0.417, G -0.449, K -0.399, R -0.457, L -0.758, H -0.285, M -0.705
G24: D -0.572, W -0.784, H -0.466, S -0.646, R -0.408, L -0.789, A -0.598, V -0.814, F -1, E -0.641, I -0.94, T -0.914, P -0.714, K -0.295, M -0.821, Y -0.86, C -0.575
G31: A 0.047, M -0.291, E -0.224, H -0.287, Y -0.213, C -0.009, Q -0.188, P -0.648, D -0.385, V -0.113, F -0.39, W -0.207, T -0.096, N -0.44, S 0.025, I -0.399, L -0.59, R -0.383, K -0.383
K22: L -0.04, R -0.054, M -0.073, P -0.958, Y -0.3, I -0.273, V -0.298, T -0.143, Q -0.028, S -0.131, N -0.117
Q27: I -0.222, A -0.071, E -0.004, Y 0.084, P -0.028, C 0.045, L -0.167, S -0.125, T 0.04, N -0.419, K -0.132, R -0.201, D -0.356, H 0.02, V -0.115
V30: M -0.655, I -0.235, W -0.793, Q -1.11, P -0.569, N -0.381, S -1, T -0.501, C -0.176, A -0.23, D -0.794, H -0.529, R -0.979, Y -0.652, G -0.776, L -0.306, F -0.552
D29: L -0.63, A -0.205, N -0.228, W -0.588, R -0.285, G -0.239, V -0.607, F -0.649, C -0.542, H -0.249, S -0.248, M -0.299, K -0.26, Y -0.251, E -0.04, Q -0.04, T -0.428
L23: Q -0.31, S -0.345, E -0.578, A -0.188, K -0.332, G -0.398, C -0.313, M 0.048, Y -0.139, R -0.239, P -0.887, D -0.733, I -0.565, N -0.254, T -0.486
F25: A -0.183, D -0.749, G -0.983, C -0.192, R -0.321, Y 0.041, E -0.773, V -0.216, T -0.632, P -0.837, N -0.709, S -0.513, H -0.266, M -0.107, W -0.149, Q -0.431, K -0.072, L -0.08, I -0.096
